Measured values as given in article PMC3811882, “The PR/SET Domain Zinc Finger Protein Prdm4 Regulates Gene Expression in Embryonic Stem Cells but Plays a Nonessential Role in the Developing Mouse Embryo”.
Changes are numbered by the printed parent chain.

Molecular target: Prdm4-ZFD (UniProt Q80V63 582-760)
Assay: EMSA; EMSA as previously described (ref 41); 0.8% agarose gels for nuclear complexes, 5% acrylamide for purified His-tagged Prdm4; buffer, salt, pH and temperature not given
Conditions: protein: recombinant; tags: His-HA; 5' overhang 2 nt (GG) on each strand

Chain of Prdm4-ZFD (Q80V63 582-760): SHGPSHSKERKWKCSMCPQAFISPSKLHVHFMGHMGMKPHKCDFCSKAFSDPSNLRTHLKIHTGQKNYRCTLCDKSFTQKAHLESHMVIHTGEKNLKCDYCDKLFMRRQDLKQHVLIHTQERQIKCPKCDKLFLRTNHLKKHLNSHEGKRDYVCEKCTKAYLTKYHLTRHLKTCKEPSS

B1: wild-type Bahcc1 (dsDNA)
DNA 1: GGCCTGGGTCGGCCCGCGGGGATCCTGGAAACCGTCCCCGGTTTATCTCCTT
DNA 2: GGAAGGAGATAAACCGGGGACGGTTTCCAGGATCCCCGCGGGCCGACCCAGG
Question: Does B1 bind?
Answer: Result: binds

B2: ΔGAAAC Bahcc1 (dsDNA)
DNA 1: B1 DNA 1 with G28T, A29C, A30C, A31C, C32A
DNA 2: B1 DNA 2 with G23T, T24G, T25G, T26G, C27A
Question: Does B2 bind?
Answer: Result: no binding
